In US20210371519A1 (UNIVERSITY OF CINCINNATI, published 2021):

Target: T1, human FcεRIα (alpha chain of the high affinity IgE receptor FcεRI) (human, UniProt P12319 26-257)
T1 construct: whole, on cells; also called huFcεRIα; hu FcεRIα
T1 sequence (looked up): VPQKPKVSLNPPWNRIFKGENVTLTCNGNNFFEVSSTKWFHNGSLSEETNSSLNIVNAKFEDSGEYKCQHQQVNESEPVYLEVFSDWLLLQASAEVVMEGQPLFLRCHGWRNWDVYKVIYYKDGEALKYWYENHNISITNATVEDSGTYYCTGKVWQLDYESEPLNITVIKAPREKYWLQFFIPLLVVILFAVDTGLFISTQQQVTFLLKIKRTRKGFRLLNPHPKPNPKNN
Test: not described

B1: IE7 anti-huFcεRIα mAb (mouse IgG1, hybridoma ATCC PTA-125115) (antibody, V domains shown)
VH: QVQLQESGGDVVKPGGSLKLSCAASGFTFSFYGMSWVRQTPDKKLEWVATISGGGNYTYYPDSVKGRFTISRDNAMNTLYLQMNSLKSEDTAMYYCVRAYYGNWNSYWGQGTLVTVS
VL: DIVMTQTPSSMYASLGERVTITCKASQDINNYLSWFQQKPGRSPKTLIYRANRLMDGVPSRIRGSGSGQDYSLTISSLEYEDMGIYYCLLYNEFPWMFGGGTKLEIKR
notes: Original hybridoma antibody, mouse IgG1; also called mAb IE7
B1: binds.
